Test results: patent publication US20080280313

Tests used:
[1] = test system: CKI phosphopeptide substrate KRRRALS(p)VASLPGL (New England Biolabs)
[2] = test system: CKI substrate DDDEESITRR (Promega)
[3] = test system: CKII substrate RRADDSDDDDD (Calbiochem)
[4] = test system: CKII substrate RRREEETEEE (New England Biolabs)
[5] = test system: CaM kinase II substrate (281-291) MHKNETVECLK (Calbiochem)
[6] = test system: Syntide-2 substrate PLARTLSVAGLPGKK (Calbiochem)
[7] = test system: kemptide LRRASLG (Promega)
[8] = biological target: partially dephosphorylated α-casein (Sigma) (UniProt P02662)
Sequence of partially dephosphorylated α-casein (Sigma) (P02662 16-214): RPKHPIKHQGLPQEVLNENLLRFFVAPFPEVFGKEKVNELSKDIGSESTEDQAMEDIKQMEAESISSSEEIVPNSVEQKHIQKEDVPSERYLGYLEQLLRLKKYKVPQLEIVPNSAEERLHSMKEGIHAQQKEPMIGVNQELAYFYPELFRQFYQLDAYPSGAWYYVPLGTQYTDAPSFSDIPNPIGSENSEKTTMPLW

β-casein (Sigma) = β-casein (Sigma) (UniProt P02666)
Sequence of β-casein (Sigma) (P02666 16-224): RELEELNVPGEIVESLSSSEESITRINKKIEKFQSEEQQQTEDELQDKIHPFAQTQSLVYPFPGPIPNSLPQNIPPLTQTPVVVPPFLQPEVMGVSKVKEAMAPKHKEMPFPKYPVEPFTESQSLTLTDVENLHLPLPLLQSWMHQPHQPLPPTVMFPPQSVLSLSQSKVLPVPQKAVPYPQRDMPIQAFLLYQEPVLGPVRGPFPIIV

Substance	Km(app) [1] [µM]	Vmax(app) (nmole min^-1 mg^-1) [1]	kinase activity with peptide substrate [2]	kinase activity with peptide substrate [3]	kinase activity with peptide substrate [4]	kinase activity with peptide substrate [5]	kinase activity with peptide substrate [6]	kinase activity with peptide substrate [7]	Km(app) [8] [µM]	Vmax(app) (nmole min^-1 mg^-1) [8]	Km(app) (β-casein (Sigma)) [µM]	Vmax(app) (nmole min^-1 mg^-1) (β-casein (Sigma))
FLAGTgCKIα, N-terminal FLAG epitope tagged Toxoplasma gondii casein kinase I alpha	80	26	failed to show concentration dependent kinase activity	failed to show concentration dependent kinase activity	failed to show concentration dependent kinase activity	failed to show concentration dependent kinase activity	failed to show concentration dependent kinase activity	failed to show concentration dependent kinase activity	4	8	30	8
native TgCKIα, partially purified from Toxoplasma gondii tachyzoites	20	–	failed to show concentration dependent kinase activity	failed to show concentration dependent kinase activity	failed to show concentration dependent kinase activity	failed to show concentration dependent kinase activity	failed to show concentration dependent kinase activity	failed to show concentration dependent kinase activity	3	–	13	–
